Results taken from patent US20170015742A1 (published 2017).
Residue numbers refer to the chain shown, from its start. Each block holds one binder with its values, some of them ahead of it.

How the values were obtained:
Human PDGF-BB [1] = target: T1, Human PDGF-BB (human, UniProt P01127 82-190); experiment: cell-based or functional assay
[2] = target: T2, Cynomolgus monkey PDGF-BB (cynomolgus monkey, UniProt P01127 82-190 (human entry), limits assumed); experiment: cell-based or functional assay
T2 chain: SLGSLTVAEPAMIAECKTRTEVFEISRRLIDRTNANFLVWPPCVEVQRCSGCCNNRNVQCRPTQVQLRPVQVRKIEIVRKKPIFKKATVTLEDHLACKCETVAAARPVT

Human PDGF-BB [3] = target: T1, Human PDGF-BB; experiment: Biacore SPR, antibody captured by anti-human Fc, PDGF-BB as analyte
Method: Unreacted moieties on the biosensor surface were blocked with ethanolamine. For kinetic analysis, rate equations derived from the 1:1 Langmuir binding model were fitted simultaneously to multiple antigen injections (using global fit analysis) with the use of Scrubber 2 (BioLogic Software), Biacore Biaevaluation 4.0.1 software or Biacore T100 Evaluation software. Purified antibodies or DVD-Ig molecules were diluted in running buffer for capture across goat anti-human Fc reaction surfaces. Antibodies or DVD-Ig molecules to be captured as a ligand (1 μg/ml) were injected over reaction matrices at a flow rate of 10 μl/minute. During the assay, all measurements were referenced against the capture surface alone (i.e., with no captured antibody or DVD-Ig molecule). […] The equilibrium dissociation constant KD (M) of the reaction between antibodies and the target antigen was then calculated from the kinetic rate constants by the following formula: KD=Koff/Kₒₙ. Binding was recorded as a function of time and kinetic rate constants were calculated. In this assay, on-rates as fast as 10⁶M⁻¹s⁻¹ and off-rates as slow as 10⁻⁶ s⁻¹ could be measured. […]

Human PDGF-BB [4] = target: T1, Human PDGF-BB; experiment: competition ELISA: antibody pre-incubated with hPDGF-BB-biotin, binding to coated hPDGF-Rβ-Fc
Method: Plates were then washed four times with wash buffer (TBS, 0.05% Tween-20) and blocked with Superblock blocking buffer (Thermo Scientific, cat#37535). During the blocking step, supernatants, antibodies, benchmark compounds or DVD-Ig were diluted in assay diluent (10% Superblock containing 0.05% surfactamps) and an eight point titration of each sample molecule was performed. […] Following incubation, plates were washed four times with wash buffer. Detection reagent Streptavidin-polyHRP-40 (Fitzgerald, cat#65r-s104phrp) was diluted in assay diluent and added to plates (50 μL) for 45 minutes at 25° C. with shaking. Plates were washed four times with wash buffer and developed with the addition of Enhanced K-blue TMB substrate (Neogen, cat#308177). The reaction was stopped with 2N sulfuric acid (VWR, cat# BDH3500-1) and the absorbance was read at 450 nm-570 nm. […] Data was analyzed using Softmax Pro 4.8 software and IC₅₀ values calculated using a sigmoidal dose response (variable slope) fit in GraphPad Prism 5.
Potency was evaluated in both cell-based and ELISA formats.

B1: CL-33578-IgG (antibody, V domains shown)
VH: EVTLRESGPALVKPTQTLTLTCTFSGFSLSTYGMGVGWIRQPPGKALEWLANIWWDDDKYYNPSLKNRLTISKDTSKNQVVLTMTNMDPVDTATYYCARIQSGWTNYEFDYWGQGTMVTVSS
VL: EIVLTQSPGTLSLSPGERATLSCERSSGDIGDSYVSWYQQKPGQAPRLVIYADDQRPSGIPDRFSGSGSGTDFTLTISRLEPEDFAVYYCQSYDINIDIVFGGGTKVEIK
hPDGF-BB NIH-3T3 Proliferation IC50 (Human PDGF-BB [1]): 33 pM
cynoPDGF-BB NIH-3T3 Proliferation IC50 [2]: 23 pM
Kd (Human PDGF-BB [3]): ≤ 0.3 pM
kon (Human PDGF-BB [3]): ≥ 9e+07 M⁻¹ s⁻¹
IC50 (Human PDGF-BB [4]): 49 pM

B4: CL-33675-IgG (antibody, V domains shown)
VH: B1 VH with Q101E, G103S, W104G, T105P, N106K, E108S
VL: B1 VL with E24R, R25A, D29S, G31W, D32Y, Y34F, V49L, P57A, D94G, I99V
hPDGF-BB NIH-3T3 Proliferation IC50 (Human PDGF-BB [1]): 40 pM
cynoPDGF-BB NIH-3T3 Proliferation IC50 [2]: 24 pM
Kd (Human PDGF-BB [3]): 0.61 pM
kon (Human PDGF-BB [3]): 3.6e+07 M⁻¹ s⁻¹
IC50 (Human PDGF-BB [4]): 54 pM

B7: CL-33706-IgG (antibody, V domains shown)
VH: B1 VH with Q101E, S102T, G103M, W104G, T105P, N106K, E108S
VL: B1 VL with E24R, R25A, D29S, G31W, D32Y, Y34F, V49L, P57A, D94G, I99V
hPDGF-BB NIH-3T3 Proliferation IC50 (Human PDGF-BB [1]): 35 pM
cynoPDGF-BB NIH-3T3 Proliferation IC50 [2]: 19 pM
Kd (Human PDGF-BB [3]): 0.69 pM
kon (Human PDGF-BB [3]): 1.8e+07 M⁻¹ s⁻¹
IC50 (Human PDGF-BB [4]): 81 pM

B8: CL-33683-IgG (antibody, V domains shown)
VH: B1 VH with Q101E, S102T, G103I, W104G, T105P, N106K, E108S
VL: B1 VL with E24R, R25A, D29S, G31W, D32Y, Y34F, V49L, P57A, D94G, I99V
hPDGF-BB NIH-3T3 Proliferation IC50 (Human PDGF-BB [1]): 29 pM
cynoPDGF-BB NIH-3T3 Proliferation IC50 [2]: 28 pM
Kd (Human PDGF-BB [3]): 0.44 pM
kon (Human PDGF-BB [3]): 1.9e+07 M⁻¹ s⁻¹
IC50 (Human PDGF-BB [4]): 126 pM

B10: CL-33811-IgG (antibody, V domains shown)
VH: B1 VH with Q101E, G103S, N106T, E108S
VL: B1 VL with D29S, G31W, D32H, V49L, A52S, P57A, S58T, D94G, N96Y, I99V
hPDGF-BB NIH-3T3 Proliferation IC50 (Human PDGF-BB [1]): 32 pM
cynoPDGF-BB NIH-3T3 Proliferation IC50 [2]: 12 pM
Kd (Human PDGF-BB [3]): 0.45 pM
kon (Human PDGF-BB [3]): 2.7e+07 M⁻¹ s⁻¹
IC50 (Human PDGF-BB [4]): 100 pM

B11: CL-33812-IgG (antibody, V domains shown)
VH: B1 VH with Q101E, G103N, W104P, T105W, N106K, E108S
VL: B1 VL with G31W, D32Q, A52S, P57A, D94G, I99V
hPDGF-BB NIH-3T3 Proliferation IC50 (Human PDGF-BB [1]): 33 pM
cynoPDGF-BB NIH-3T3 Proliferation IC50 [2]: 28 pM
Kd (Human PDGF-BB [3]): 0.3 pM
kon (Human PDGF-BB [3]): 6.3e+07 M⁻¹ s⁻¹
IC50 (Human PDGF-BB [4]): 43 pM

More lines, now with the values ahead:

hPDGF-BB NIH-3T3 Proliferation IC50 (Human PDGF-BB [1]): 46 pM
cynoPDGF-BB NIH-3T3 Proliferation IC50 [2]: 29 pM
Kd (Human PDGF-BB [3]): ≤ 0.22 pM
kon (Human PDGF-BB [3]): ≥ 9e+07 M⁻¹ s⁻¹
IC50 (Human PDGF-BB [4]): < 100 pM
B2: CL-33587-IgG (antibody, V domains shown)
VH: B1 VH with G103M, N106R, E108D
VL: B1 VL

hPDGF-BB NIH-3T3 Proliferation IC50 (Human PDGF-BB [1]): 17 pM
cynoPDGF-BB NIH-3T3 Proliferation IC50 [2]: 13 pM
Kd (Human PDGF-BB [3]): ≤ 0.16 pM
kon (Human PDGF-BB [3]): ≥ 9.8e+07 M⁻¹ s⁻¹
IC50 (Human PDGF-BB [4]): 66 pM
B3: CL-33820-IgG (antibody, V domains shown)
VH: B1 VH with Q101E, G103S, W104F, N106S, E108S
VL: B1 VL with E24K, D29S, G31Y, S33T, A52S, I95L, N96T, V100T

hPDGF-BB NIH-3T3 Proliferation IC50 (Human PDGF-BB [1]): 37 pM
cynoPDGF-BB NIH-3T3 Proliferation IC50 [2]: 19 pM
Kd (Human PDGF-BB [3]): ≤ 0.05 pM
kon (Human PDGF-BB [3]): 2e+07 M⁻¹ s⁻¹
IC50 (Human PDGF-BB [4]): 162 pM
B5: CL-33855-IgG (antibody, V domains shown)
VH: B1 VH with Q101E, S102T, G103F, W104G, T105P, N106K, E108S
VL: B1 VL with E24R, R25A, D29S, G31W, D32Y, Y34F, V49L, P57A, D94G, I99V

hPDGF-BB NIH-3T3 Proliferation IC50 (Human PDGF-BB [1]): 36 pM
cynoPDGF-BB NIH-3T3 Proliferation IC50 [2]: 23 pM
Kd (Human PDGF-BB [3]): 0.2 pM
kon (Human PDGF-BB [3]): 8.1e+07 M⁻¹ s⁻¹
IC50 (Human PDGF-BB [4]): 68 pM
B6: CL-33731-IgG (antibody, V domains shown)
VH: B1 VH with Q101E, G103I, W104P, N106S, E108S
VL: B1 VL with D29S, G31W, D32Q, P57A, S58T, N96D, I99V

hPDGF-BB NIH-3T3 Proliferation IC50 (Human PDGF-BB [1]): 30 pM
cynoPDGF-BB NIH-3T3 Proliferation IC50 [2]: 19 pM
Kd (Human PDGF-BB [3]): ≤ 0.24 pM
kon (Human PDGF-BB [3]): ≥ 9e+07 M⁻¹ s⁻¹
IC50 (Human PDGF-BB [4]): 69 pM
B9: CL-33682-IgG (antibody, V domains shown)
VH: B1 VH with Q101E, G103S, N106S, E108S
VL: B1 VL with D29S, I30N, G31Y, S33T, V49L, Q55L, P57A, D94G, I99V
